Test results as given in patent US6617117B1, “MAP kinases: polypeptides, polynucleotides and uses thereof” (Medical Research Council, priority 1996, dated 2003).

B1: ATF2: transcription factor activation domain linked to GST, kinase substrate (protein)
chain: MSDDKPFLCTAPGCGQRFTNEDHLAVHKHKHEMTLKFGPARNDSVIVADQTPTPTRFLKNCEEVGLFNELASPFENEF
modifications: left off: a dimerising Fc or GST
B2: SAP-1: transcription factor activation domain linked to GST, kinase substrate (protein)
chain: TPSPPLSSHPDIDTDIDSVASQPMELPENLSLEPKDQDSVLLEKDKVNNSSRSKKPKGLELAPTLVITSSDPSPLGILSPSLPTASLTPAFFSQTPIILTPSPLLSSIHFWSTLSPVAPLSPARLQGANTLFQFPSVLNSHGPFTLSGLDGPSTPGPFSPDLQKT
modifications: left off: a dimerising Fc or GST
B3: c-Jun: transcription factor activation domain linked to GST, kinase substrate (protein)
chain: MTAKMETTFYDDALNASFLPSESGPYGYSNPKILKQSMTLNLADPVGSLKPHLRAKNSDLLTSPDVGLLKLASPELERLIIQSSNGHITTTPTPTQFLCPKNVTDEQEGFAEGFVRALAELHSQNTLPSVTSAAQPVNGAGMVAPAVASVAGGSGSGGFSASLHSEPPVYANLSNFNPGALSSGGGAPSYGAAG
modifications: left off: a dimerising Fc or GST
B4: MAPKAP-K3: MAP kinase-activated protein kinase-3, GST fusion used as kinase substrate (protein)
chain: MDGETAEEQGGPVPPPVAPGGPGLGGAPGGRREPKKYAVTDDYQLSKQVLGLGVNGKVLECFHRRTGQKCALKLLYDSPKARQEVDHHWQASGGPHIVCILDVYENMHHGKRCLLIIMECMEGGELFSRIQERGDQAFTEREAAEIMRDIGTAIQFLHSHNIAHRDVKPENLLYTSKEKDAVLKLTDFGFAKETTQNALQTPCYTPYYVAPEVLGPEKYDKSCDMWSLGVIMYILLCGFPPFYSNTGQAISPGMKRRIRLGQYGFPNPEWSEVSEDAKQLIRLLLKTDPTERLTITQFMNHPWINQSMVVPQTPLHTARVLQEDKDHWDEVKEEMTSALATMRVDYDQVKIKDLKTSNNRLLNKRRKKQAGSSSASQGCNNQ
modifications: left off: a dimerising Fc or GST

Molecular target: T1, SAPK4 (Homo sapiens, UniProt O15264)
T1 sequence (O15264 1-365): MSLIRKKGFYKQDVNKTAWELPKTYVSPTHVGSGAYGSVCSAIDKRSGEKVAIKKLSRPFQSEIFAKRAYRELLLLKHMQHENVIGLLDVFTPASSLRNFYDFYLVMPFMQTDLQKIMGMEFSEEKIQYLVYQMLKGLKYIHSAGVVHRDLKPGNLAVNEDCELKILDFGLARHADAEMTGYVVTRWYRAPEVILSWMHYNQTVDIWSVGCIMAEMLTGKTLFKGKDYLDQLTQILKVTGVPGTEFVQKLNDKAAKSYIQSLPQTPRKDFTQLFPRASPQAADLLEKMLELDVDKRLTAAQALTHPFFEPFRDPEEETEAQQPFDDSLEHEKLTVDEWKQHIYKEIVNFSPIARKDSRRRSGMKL
Assay: Substrate specificity: rate of phosphorylation by SAPK4 (Table 1)
Type: biochemical
Set-up: made in house; host or cells: E. coli BL21(DE3)
Details: substrate 1 μm; SAPK 0.15 U/ml; means ± SEM of six determinations
Procedure: (§1) Experiments were carried out with the Xenopus homologue of SAPK2a, human SAPK2b and human SAPK4. The SAPKs were activated in vitro (FIG. 7) and phosphorylation of each protein was studied at a SAPK concentration of 0.15 U/ml. The results are presented as means±SEM of six determinations (two separate experiments). The data for rat SAPK3 are taken from Example 4 and Cuenda et al (1997).
SAPK4 is assayed routinely by the phosphorylation of MBP. […] After washing and drying the papers (Alessi et al, 1995 Meth. Enzymol. 255, 279-290) ^32P radioactivity incorporated into MBP is measured.

Compared with B1, B2 is lower in “Rates of phosphorylation relative to MBP, SAPK4” value: 130 ± 2% for the first, 62 ± 5% for the second.

First: B3
Second: B4
The “Rates of phosphorylation relative to MBP, SAPK4” value of the first is lower: 6 ± 2% for the first, 18 ± 2% for the second.

Molecular target: T2, human SAPK2b (Homo sapiens, UniProt Q15759)
T2 construct: a number of SAPK2b clones, some of which were full-length; made in house; host or cells: E. coli BL21(DE3)
Assay: Substrate specificity: rate of phosphorylation by SAPK2b (Table 1)
Type: biochemical
Details: substrate 1 μm; SAPK 0.15 U/ml; means ± SEM of six determinations
Procedure: as §1

T2 sequence (Q15759 whole entry): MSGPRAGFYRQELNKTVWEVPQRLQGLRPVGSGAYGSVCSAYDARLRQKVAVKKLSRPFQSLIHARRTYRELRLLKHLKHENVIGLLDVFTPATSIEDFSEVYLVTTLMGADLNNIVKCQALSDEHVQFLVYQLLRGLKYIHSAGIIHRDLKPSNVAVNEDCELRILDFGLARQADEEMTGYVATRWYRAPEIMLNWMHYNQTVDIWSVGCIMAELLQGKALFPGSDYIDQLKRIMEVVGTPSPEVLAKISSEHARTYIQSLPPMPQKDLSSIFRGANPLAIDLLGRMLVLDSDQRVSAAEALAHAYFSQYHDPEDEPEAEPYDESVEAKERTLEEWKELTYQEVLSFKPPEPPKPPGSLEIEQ

First: B1
Second: B2
The “Rates of phosphorylation relative to MBP, SAPK2b” value of the first is higher: 62 ± 2% for the first, 27 ± 5% for the second.

Compared with B3, B4 is higher in “Rates of phosphorylation relative to MBP, SAPK2b” value: 7 ± 2% for the first, 66 ± 6% for the second.

Molecular target: T3, Xenopus homologue of SAPK2a (Xenopus laevis, UniProt P47812)
T3 construct: made in house; host or cells: E. coli
Assay: Substrate specificity: rate of phosphorylation by SAPK2a (Table 1)
Type: biochemical
Details: substrate 1 μm; SAPK 0.15 U/ml; means ± SEM of six determinations
Procedure: as §1

T3 sequence (P47812 whole entry): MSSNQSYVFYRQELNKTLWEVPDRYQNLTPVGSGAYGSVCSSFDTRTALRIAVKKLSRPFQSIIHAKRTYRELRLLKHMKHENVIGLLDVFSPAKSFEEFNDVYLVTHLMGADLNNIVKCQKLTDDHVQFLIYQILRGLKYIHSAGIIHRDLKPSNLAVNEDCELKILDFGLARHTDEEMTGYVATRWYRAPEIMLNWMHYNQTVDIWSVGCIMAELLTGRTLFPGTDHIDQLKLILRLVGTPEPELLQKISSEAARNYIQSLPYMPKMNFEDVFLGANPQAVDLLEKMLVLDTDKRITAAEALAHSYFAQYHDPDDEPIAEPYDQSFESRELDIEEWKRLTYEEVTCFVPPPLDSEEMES

Going from B1 to B2, the “Rates of phosphorylation relative to MBP, SAPK2a” value falls from 40 ± 2% to 25 ± 1%.

Going from B3 to B4, the “Rates of phosphorylation relative to MBP, SAPK2a” value rises from 4 ± 1% to 87 ± 10%.

Molecular target: T4, SAPK2 (Xenopus homologue) (Xenopus laevis, UniProt P47812)
T4 construct: made in house; host or cells: E. coli
Assay: Substrate specificity: rate of phosphorylation by SAPK2 (Table 2)
Type: biochemical
Details: substrate 1 μM; SAPK 0.1 U/ml
Procedure: (§2) Protein kinase assays. SAPK3 was assayed routinely by the phosphorylation of MBP. […] After 20 min at 30° C.
(§3) Table 2. Comparison of substrate specificities of SAPK2 and SAPK3. SAPK2 and SAPK3 were activated in vitro (FIG. 15) and phosphorylation of each protein studied at a SAPK concentration of 0.1 U/ml.

T4 sequence (P47812 whole entry): as above

B1 and B2 are within error of each other in “Rate of phosphorylation relative to MBP, SAPK2” value: 86 ± 20 for the first, 55 ± 13 for the second.

B3 was tested, and the “Rate of phosphorylation relative to MBP, SAPK2” value was 2 ± 1.

Molecular target: T5, rat SAPK3 (Rattus norvegicus, UniProt Q63538)
T5 construct: made in house; host or cells: E. coli BL21 (DE3)
T5 sequence (Q63538 1-367): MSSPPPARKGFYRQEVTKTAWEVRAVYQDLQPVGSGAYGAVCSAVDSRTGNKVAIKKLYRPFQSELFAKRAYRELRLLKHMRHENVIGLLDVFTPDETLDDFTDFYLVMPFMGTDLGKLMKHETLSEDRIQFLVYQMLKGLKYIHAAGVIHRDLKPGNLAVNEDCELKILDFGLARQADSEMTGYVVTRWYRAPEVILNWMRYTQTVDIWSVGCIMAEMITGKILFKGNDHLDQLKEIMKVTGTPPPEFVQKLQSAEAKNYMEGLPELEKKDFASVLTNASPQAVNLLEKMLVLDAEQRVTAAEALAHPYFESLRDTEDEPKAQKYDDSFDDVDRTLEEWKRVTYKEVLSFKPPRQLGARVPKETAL
Assay: Substrate specificity: rate of phosphorylation by SAPK3 (Tables 1 and 2)
Type: biochemical
Details: substrate 1 μM; SAPK 0.1 U/ml
Procedure: as §1, §2, §3

B1 and B2 are within error of each other in “Rate of phosphorylation relative to MBP, SAPK3” value: 107 ± 20 for the first, 108 ± 15 for the second.

With B3 the “Rate of phosphorylation relative to MBP, SAPK3” value was 2 ± 1.

Same assay, conditions: substrate 1 μm; rat SAPK3 data taken from Example 4 and Cuenda et al (1997)

B1 and B2 are within error of each other in “Rates of phosphorylation relative to MBP, SAPK3” value: 107 ± 20% for the first, 108 ± 15% for the second.

First: B3
Second: B4
The “Rates of phosphorylation relative to MBP, SAPK3” value of the first is lower: 2 ± 1% for the first, 20 ± 6% for the second.
